Source: patent US20140017253A1 (ONCOMED PHARMACEUTICALS, published 2014)
Residue numbers refer to the chain shown, from its start.

T1: LGR5-Fc fusion protein (human, UniProt O75473 22-564)
T1 construct: range 22-564; Expressed in insect cells with baculovirus, purified on protein A; also called soluble LGR5-Fc; not shown: human Fc
T1 sequence (looked up): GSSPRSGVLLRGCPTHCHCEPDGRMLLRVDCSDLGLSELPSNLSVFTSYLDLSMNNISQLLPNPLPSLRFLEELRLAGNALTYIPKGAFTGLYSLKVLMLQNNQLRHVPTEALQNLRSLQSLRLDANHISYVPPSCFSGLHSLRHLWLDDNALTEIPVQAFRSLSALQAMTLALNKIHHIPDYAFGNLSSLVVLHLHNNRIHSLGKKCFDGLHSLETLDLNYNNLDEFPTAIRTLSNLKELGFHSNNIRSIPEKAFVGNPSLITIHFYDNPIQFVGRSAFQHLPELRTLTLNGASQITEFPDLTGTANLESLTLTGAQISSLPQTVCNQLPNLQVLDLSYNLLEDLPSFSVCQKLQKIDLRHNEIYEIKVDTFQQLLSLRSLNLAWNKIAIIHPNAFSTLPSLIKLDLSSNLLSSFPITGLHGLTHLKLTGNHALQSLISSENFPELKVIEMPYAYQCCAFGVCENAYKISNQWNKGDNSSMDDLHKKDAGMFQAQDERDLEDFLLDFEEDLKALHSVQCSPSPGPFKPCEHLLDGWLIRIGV

T2: recombinant human RSPO3 protein, biotinylated (human, UniProt Q9BXY4 22-272, biotinylated (sites not given))
T2 sequence: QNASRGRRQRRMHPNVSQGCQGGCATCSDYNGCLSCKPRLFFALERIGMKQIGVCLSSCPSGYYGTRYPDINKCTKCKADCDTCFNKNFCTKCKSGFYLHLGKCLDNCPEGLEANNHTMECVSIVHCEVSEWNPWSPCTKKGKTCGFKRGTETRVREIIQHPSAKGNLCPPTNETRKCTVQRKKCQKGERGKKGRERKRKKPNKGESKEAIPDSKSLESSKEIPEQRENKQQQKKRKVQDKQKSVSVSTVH

T3: human RSPO3 (recombinant, R&D Systems) (human, UniProt Q9BXY4 22-272)
T3 sequence: T2 sequence

B1: RSPO2-Fc fusion protein (Fc fusion)
chain: QGNRWRRSKRASYVSNPICKGCLSCSKDNGCSRCQQKLFFFLRREGMRQYGECLHSCPSGYYGHRAPDMNRCARCRIENCDSCFSKDFCTKCKVGFYLHRGRCFDECPDGFAPLEETMECVEGCEVGHWSEWGTCSRNNRTCGFKWGLETRTRQIVKKPVKDTIPCPTIAESRRCKMTMRHCPGGKRTPKAKEKRNKKKKRKLIERAQEQHSVFLATDRANQ
notes: Full-length human RSPO2 ligated in-frame to a human Fc region, expressed in insect cells; not shown: human Fc region
B2: RSPO3-Fc fusion protein (Fc fusion)
chain: T2 sequence
notes: Full-length human RSPO3 ligated in-frame to a human Fc region, expressed in insect cells; not shown: human Fc region
B3: RSPO4-Fc fusion protein (Fc fusion, not shown: a dimerising Fc or GST; small tags and cut ends)
chain: NRRKKQVGTGLGGNCTGCIICSEENGCSTCQQRLFLFIRREGIRQYGKCLHDCPPGYFGIRGQEVNRCKKCGATCESCFSQDFCIRCKRQFYLYKGKCLPTCPPGTLAHQNTRECQGECELGPWGGWSPCTHNGKTCGSAWGLESRVREAGRAGHEEAATCQVLSESRKCPIQRPCPGERSPGQKKGRKDRRPRKDRKLDRRLDVRPRQPGLQP
notes: Full-length human RSPO4 ligated in-frame to a human Fc region, expressed in insect cells
B4: RSPO1-Fc fusion protein (Fc fusion)
chain: SRGIKGKRQRRISAEGSQACAKGCELCSEVNGCLKCSPKLFILLERNDIRQVGVCLPSCPPGYFDARNPDMNKCIKCKIEHCEACFSHNFCTKCKEGLYLHKGRCYPACPEGSSAANGTMECSSPAQCEMSEWSPWGPCSKKQQLCGFRRGSEERTRRVLHAPVGDHAACSDTKETRRCTVRRVPCPEGQKRRKGGQGRRENANRNLARKESKEAGAGSRRRKGQQQQQQQGTVGPLTSAGPA
notes: not shown: human Fc region
B5: anti-RSPO3 antibody 131R003 (antibody, human IgG2, kappa, V domains shown)
VH: QVQLKQSGPELVKPGASVKISCKASGYTFTDYSIHWVKQNHGKSLDWIGYIYPSNGDSGYNQKFKNRATLTVDTSYSTAYLEVRRLTFEDSAVYYCATYFANYFDYWGQGTTLTVSS
VL: DIVLTQSPASLAVSLGQRATISCKASQSVDYDGDSYMNWYQQKPGQPPKLLIYAASNLESGIPARFSGSGSGTDFTLNIHPVEEEDAATYYCQQSNEDPLTFGAGTKLELKR
notes: Same light chain as 131R002; also called parental 131R003; 131R003 (IgG2)
B6: anti-RSPO3 antibody 131R002 (antibody, human IgG2, kappa, V domains shown)
VH: B5 VH with K5Q, Q6E, Y76S
VL: B5 VL
notes: Same light chain as 131R003; also called 131R002 (IgG2)
B7: humanized anti-RSPO3 antibody h131R007 (antibody, human IgG2, kappa)
heavy: QVQLVQSGAEVKKPGASVKVSCKASGYTFTDYSIHWVRQAPGQGLEWIGYIYPSNGDSGYNQKFKNRVTMTRDTSTSTAYMELSRLRSEDTAVYYCATYFANNFDYWGQGTTLTVSSASTKGPSVFPLAPCSRSTSESTAALGCLVKDYFPEPVTVSWNSGALTSGVHTFPAVLQSSGLYSLSSVVTVPSSNFGTQTYTCNVDHKPSNTKVDKTVERKCCVECPPCPAPPVAGPSVFLFPPKPKDTLMISRTPEVTCVVVDVSHEDPEVQFNWYVDGVEVHNAKTKPREEQFNSTFRVVSVLTVVHQDWLNGKEYKCKVSNKGLPAPIEKTISKTKGQPREPQVYTLPPSREEMTKNQVSLTCLVKGFYPSDIAVEWESNGQPENNYKTTPPMLDSDGSFFLYSKLTVDKSRWQQGNVFSCSVMHEALHNHYTQKSLSLSPGK
light: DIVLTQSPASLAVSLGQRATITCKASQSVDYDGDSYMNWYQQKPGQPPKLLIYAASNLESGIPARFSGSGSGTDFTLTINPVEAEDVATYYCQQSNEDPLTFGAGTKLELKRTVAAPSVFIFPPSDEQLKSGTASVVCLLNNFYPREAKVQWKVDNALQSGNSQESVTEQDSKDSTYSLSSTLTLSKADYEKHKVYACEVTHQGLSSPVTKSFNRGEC
notes: IgG2; also called h131R005/131R007; h131R005
B8: 131R003CDR3 variant (antibody, human IgG2, kappa, V domains shown)
VH: B5 VH with Y103N
VL: B5 VL
notes: also called 131R003 CDR3 variant (IgG2); 131R003 Heavy chain - Variant 1
B9: humanized anti-RSPO3 antibody h131R011 (antibody, human IgG2, kappa, V domains shown)
VH: QVQLVQSGAEVKKPGASVKVSCKASGYTFTDYSIHWVRQAPGQGLEWIGYIYPSNGDSGYNQKFKNRVTMTRDTSTSTAYMELSRLRSEDTAVYYCATYFANNFDYWGQGTTLTVSS
VL: DIQMTQSPSSLSASVGDRVTITCKASQSVDYDGDSYMNWYQQKPGKAPKLLIYAASNLESGVPSRFSGSGSGTDFTLTISPVQAEDFATYYCQQSNEDPLTFGAGTKLELKR
notes: IgG2; also called h131R011 (IgG2)

These binders were tested against T1, LGR5-Fc fusion protein (assay: SPR (Biacore 2000), RSPO-Fc amine-coupled to CM5 chip, soluble LGR5-Fc injected 100-0.78 nM).
Experimental: Binding affinities between RSPO proteins and LGR5 were analyzed by surface plasmon resonance. A soluble LGR5-Fc construct was generated using standard recombinant DNA techniques. Specifically, amino acids 1-564 of human LGR5 were ligated in frame to human Fc and the recombinant LGR5-Fc fusion protein was expressed in insect cells using baculovirus. The LGR5-Fc fusion protein was purified from the insect medium using protein A chromatography. Cleavage of the LGR5 signal sequence results in a mature LGR5-Fc fusion protein containing amino acids 22-564 of LGR5. […] Two-fold dilutions of soluble LGR5-Fc were injected over the chip surface (100 nM to 0.78 nM). Kinetic data were collected over time using a Biacore 2000 system from Biacore Life Sciences (GE Healthcare) and the data were fit using the simultaneous global fit equation to yield affinity constants (KD values) for each RSPO protein (Table 3).

Kd [nM]	Binder
14	B1
< 1	B2
73	B3
110	B4

These binders were tested against T2, recombinant human RSPO3 protein, … (assay: SPR (Biacore 2000), biotinylated human RSPO3 captured on streptavidin chip, antibody injected 100-0.78 nM).
Experimental: The antibodies were serially diluted 2-fold from 100 nM to 0.78 nM in HBS-P (0.01M HEPES pH 7.4, 0.15M NaCl, 0.005% v/v Surfactant P20) and were injected over the chip surface. Kinetic data were collected over time and were fit using the simultaneous global fit equation to yield affinity constants (KD values) for each antibody.

Kd [nM]	Binder
7.3	B5
8.2	B6

These binders were tested against T3, human RSPO3 (recombinant, R&D Systems) (assay: SPR (Biacore 2000), antibody captured by goat anti-human IgG on CM5 chip, human RSPO3 injected 300-37.5 nM).
Experimental: The method used was different than described in Example 3. A goat anti-human IgG antibody was coupled to a carboxymethyl-dextran (CM5) SPR chip using standard amine-based chemistry (NHS/EDC) and blocked with ethanolamine. Antibodies (purified antibody or culture supernatant) were diluted to a concentration of 10 μg/ml in HBS-P-BSA (0.01M HEPES pH7.4, 0.15M NaCl, 0.005% v/v Polysorbate 20, 100 μg/ml BSA) and captured onto the chip via the anti-human IgG antibody. […] After each antigen injection 5 μl of 100 mM H₃PO₄ was injected to remove the antigen-antibody complex and a subsequent injection performed. Kinetic data were collected over time and were fit using the simultaneous global fit equation to yield affinity constants (KD values) for each antibody (Table 4).

Kd [nM]	Binder
0.654	B7
1.9	B5
1.3	B6
1.7	B8
0.686	B9
